Positions count from the first letter of the chain named. Like-named read-outs stand apart in the source and are kept apart here.
T1: full-length mouse GLP1R on HEK293/CRE-Luc/mGLP1R cells (mouse, UniProt O35659 22-463)
T1 construct: whole, on cells
T1 sequence (looked up): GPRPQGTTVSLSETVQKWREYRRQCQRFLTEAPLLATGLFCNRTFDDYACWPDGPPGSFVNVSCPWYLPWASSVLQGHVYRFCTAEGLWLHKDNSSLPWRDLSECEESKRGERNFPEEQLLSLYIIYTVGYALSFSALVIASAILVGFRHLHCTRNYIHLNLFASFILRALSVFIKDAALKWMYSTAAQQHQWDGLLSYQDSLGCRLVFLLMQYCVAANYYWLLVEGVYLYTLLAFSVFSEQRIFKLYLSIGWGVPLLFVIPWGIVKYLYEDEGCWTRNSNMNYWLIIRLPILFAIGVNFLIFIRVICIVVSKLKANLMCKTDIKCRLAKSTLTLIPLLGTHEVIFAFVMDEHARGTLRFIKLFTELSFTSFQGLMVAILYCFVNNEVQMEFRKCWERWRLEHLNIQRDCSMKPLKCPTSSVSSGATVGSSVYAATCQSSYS

T2: full-length human gastric inhibitory polypeptide receptor on HEK293/CRE-Luc/hGIPR cells (human, UniProt P48546 22-466)
T2 sequence (looked up): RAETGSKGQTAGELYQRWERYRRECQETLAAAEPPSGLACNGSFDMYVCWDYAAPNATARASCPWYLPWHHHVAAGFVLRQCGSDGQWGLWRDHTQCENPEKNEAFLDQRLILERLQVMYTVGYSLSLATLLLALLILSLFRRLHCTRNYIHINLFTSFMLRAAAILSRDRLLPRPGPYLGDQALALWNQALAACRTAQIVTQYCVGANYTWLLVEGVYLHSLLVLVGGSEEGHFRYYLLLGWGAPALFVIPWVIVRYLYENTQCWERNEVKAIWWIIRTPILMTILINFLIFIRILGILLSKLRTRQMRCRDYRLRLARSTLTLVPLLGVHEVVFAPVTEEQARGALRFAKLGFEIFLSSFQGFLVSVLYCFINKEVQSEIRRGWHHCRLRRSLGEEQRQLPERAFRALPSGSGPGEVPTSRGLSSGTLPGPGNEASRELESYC

T3: full-length human glucagon-like peptide 2 receptor on HEK293/CRE-Luc/hGLP2R cells (human, UniProt O95838 1-553)
T3 sequence (looked up): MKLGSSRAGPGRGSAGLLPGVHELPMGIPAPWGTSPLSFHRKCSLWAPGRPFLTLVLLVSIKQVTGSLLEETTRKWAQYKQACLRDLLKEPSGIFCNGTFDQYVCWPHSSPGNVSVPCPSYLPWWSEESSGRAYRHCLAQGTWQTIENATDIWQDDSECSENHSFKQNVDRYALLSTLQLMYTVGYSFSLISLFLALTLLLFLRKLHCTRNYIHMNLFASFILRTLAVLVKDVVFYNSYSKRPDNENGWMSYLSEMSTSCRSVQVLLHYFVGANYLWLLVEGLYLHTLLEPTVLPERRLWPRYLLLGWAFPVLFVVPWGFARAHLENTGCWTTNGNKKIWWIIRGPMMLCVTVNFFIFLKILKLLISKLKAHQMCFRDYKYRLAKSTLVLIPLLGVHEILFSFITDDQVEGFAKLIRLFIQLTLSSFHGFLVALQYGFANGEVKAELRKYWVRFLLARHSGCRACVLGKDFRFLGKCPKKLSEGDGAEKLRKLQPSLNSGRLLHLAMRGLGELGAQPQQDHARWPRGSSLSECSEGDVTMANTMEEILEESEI

B1: REGN7990 (antibody, human IgG4 S228P, kappa, V domains shown)
VH: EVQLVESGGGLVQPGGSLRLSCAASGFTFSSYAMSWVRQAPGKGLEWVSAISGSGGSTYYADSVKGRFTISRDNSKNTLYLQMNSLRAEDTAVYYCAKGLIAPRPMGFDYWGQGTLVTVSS
VL: DIQMTQSPSSVSASVGDRVTITCRASQGINSWLAWYQQKPGKAPKLLIYAASSLQSGVPSRFSGSGSGTDFTLTISSLQPEDFATYYCHQADSFPYTFGQGTKLEIKR
notes: IgG4; Q-tag on light chain N-terminus; also called mAb 3; REGN7990 unconjugated Ab
B2: REGN15869 (antibody, human IgG4 S228P, kappa, V domains shown)
VH: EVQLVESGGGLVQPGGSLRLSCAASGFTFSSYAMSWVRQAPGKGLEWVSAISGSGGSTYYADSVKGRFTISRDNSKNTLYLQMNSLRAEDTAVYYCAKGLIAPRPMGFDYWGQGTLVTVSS
VL: B1 VL with Q55E
notes: IgG4; Q-tag on light chain N-terminus; also called REGN15869 unconjugated Ab
B3: REGN8070-M3190 (antibody, human IgG4 S228P, kappa, V domains shown)
VH: QVQLVESGGGVGQPGRSLRLSCAASGFTFSRNAMHWVRQAPGKGLEWVAVISYDGSNKHYADSVKGRFTISRDNSKNTLYLEMNSLRVEDTAVYYCAKGGIPFDYWGQGTLVTVSS
VL: DIVMTQSPLSSPVTLGQPASISCRSSQSLVHFDGNTYLSWLHQRPGQPPRLLIYKISNRFSGVPDRFSGSGAGTDFTLKISRVEPEDVGVYYCMHATQFPYTFGQGTKLEIKR
modifications: linker-payload M3190 (LP11) on Gln 3 of the N-terminal Q-tag LLQGSG
notes: antibody-tethered drug conjugate; also called REGN8070 ATDC
B4: REGN9267-M3190 (antibody, human IgG4 S228P, kappa)
heavy: not shown
light: EIVLTQSPGTLSLSPGERDTLSCRASQSIAGRYVAWYQQKPGQAPRLLIYGASSRATGIPDRFSGSGSGTDFTLTISRLEPEDFAVYYCQQYGSSPWTFGQGTKVEIKRTVAAPSVFIFPPSDEQLKSGTASVVCLLNNFYPREAKVQWKVDNALQSGNSQESVTEQDSKDSTYSLSSTLTLSKADYEKHKVYACEVTHQGLSSPVTKSFNRGEC
modifications: linker-payload M3190 (LP11) on Gln 3 of the N-terminal Q-tag LLQGSG
notes: antibody-tethered drug conjugate; Q-tag on heavy chain; also called REGN9267 ATDC
B5: REGN8072-M3190 (antibody, human IgG4 S228P, kappa, V domains shown)
VH: QVQLVESGGGVVQPARSLRLSCAASGFAFSRSAMHWVRQAPGKGLEWVAVISYDGSNKYYTDSVKGRFTISRDNSKNTLYLQMNTLRAEDTALYYCAKMYTTMDSFDYWGQGTLVTVSS
VL: DIQLTQSPSFLSASVGDRVTITCWASQGISSYLAWYQQKPGKAPKLLIYAASTLQSGVPSRFSGSGSGTEFTLTISSLQPEDFALYYCQQLNSYPRTFGQGTKVEIKR
modifications: linker-payload M3190 (LP11) on Gln 3 of the N-terminal Q-tag LLQGSG
notes: antibody-tethered drug conjugate; also called REGN8072 ATDC; anti-GLP1R mAb4-LP11
B6: REGN9268 (antibody, human IgG4 S228P, kappa)
heavy: not shown
light: LLQGSGEIVLTQSPGTLSLSPGERDTLSCRASQSIAGRYVAWYQQKPGQAPRLLIYGASSRATGIPDRFSGSGSGTDFTLTISRLEPEDFAVYYCQQYGSSPWTFGQGTKVEIKRTVAAPSVFIFPPSDEQLKSGTASVVCLLNNFYPREAKVQWKVDNALQSGNSQESVTEQDSKDSTYSLSSTLTLSKADYEKHKVYACEVTHQGLSSPVTKSFNRGEC
notes: IgG4; Q-tag LLQGSG at the N-terminus of the light chain; also called mAb 17; REGN9268 unconjugated Ab

Columns and labels:
[1] = target: T4, full-length human GLP1R on HEK293/CRE-Luc/hGLP1R cells (human, UniProt P43220 24-463); experiment: flow cytometry, hGLP1R cells
T4 construct: whole, on cells

[2] = target: T5, full-length cynomolgus GLP1R on HEK293/CRE-Luc/mfGLP1R cells (cynomolgus, UniProt F8V479 24-463); experiment: flow cytometry, mfGLP1R cells
T5 construct: whole, on cells

[3] = target: T5, full-length cynomolgus GLP1R on …; experiment: flow cytometry, mfGLP1R cells; remark: listed apart in the source
[4] = target: T1, full-length mouse GLP1R on …; experiment: flow cytometry, mGLP1R cells
[5] = target: T2, full-length human gastric inhibitory …; experiment: cell-based or functional assay
[6] = target: T6, full-length human glucagon receptor on HEK293/CRE-Luc/hGCGR cells (human, UniProt P47871 26-477); experiment: cell-based or functional assay
T6 sequence (P47871 26-477): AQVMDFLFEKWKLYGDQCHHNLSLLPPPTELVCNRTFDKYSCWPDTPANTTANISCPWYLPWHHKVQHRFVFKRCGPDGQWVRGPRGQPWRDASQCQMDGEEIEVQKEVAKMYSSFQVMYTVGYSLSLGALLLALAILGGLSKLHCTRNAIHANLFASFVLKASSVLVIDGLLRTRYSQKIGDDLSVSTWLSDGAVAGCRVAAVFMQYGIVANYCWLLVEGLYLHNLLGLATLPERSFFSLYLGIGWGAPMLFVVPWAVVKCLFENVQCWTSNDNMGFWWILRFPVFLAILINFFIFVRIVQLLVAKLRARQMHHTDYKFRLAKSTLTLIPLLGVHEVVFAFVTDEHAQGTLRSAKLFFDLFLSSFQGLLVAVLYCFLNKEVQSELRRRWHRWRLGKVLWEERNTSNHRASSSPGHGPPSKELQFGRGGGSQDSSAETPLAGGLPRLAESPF

[7] = target: T4, full-length human GLP1R on …; experiment: cell-based or functional assay
[8] = target: T5, full-length cynomolgus GLP1R on …; experiment: cell-based or functional assay
[9] = target: T3, full-length human glucagon-like peptide …; experiment: cell-based or functional assay
[10] = target: T4, full-length human GLP1R on …; experiment: flow cytometry, hGLP1R cells; remark: listed apart in the source
[11] = target: T4, full-length human GLP1R on …; experiment: cell-based or functional assay; remark: listed apart in the source
[12] = target: human GLP1R on PathHunter eXpress GLP1R CHO-K1 b-Arrestin GPCR cells (human, UniProt P43220 24-463); experiment: cell-based or functional assay
[13] = target: T4, full-length human GLP1R on …; experiment: cell-based or functional assay; remark: listed apart in the source
[14] = target: T7, N-terminal ectodomain of human GLP1R expressed with a myc-myc hexahistidine tag (human, UniProt P43220 24-145, limits assumed); experiment: SPR, captured via anti-hFc, 25 C
T7 construct: extracellular domain; also called hGLP1R-MMH; hGLP1R.mmh
T7 sequence (P43220 24-145 limits assumed): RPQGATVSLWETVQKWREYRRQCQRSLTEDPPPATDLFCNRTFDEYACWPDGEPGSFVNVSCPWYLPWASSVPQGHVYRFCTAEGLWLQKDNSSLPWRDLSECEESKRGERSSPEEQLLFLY

[15] = target: T2, full-length human gastric inhibitory …; experiment: cell-based or functional assay; remark: listed apart in the source
[16] = target: T6, full-length human glucagon receptor on …; experiment: cell-based or functional assay; remark: listed apart in the source
[17] = target: T4, full-length human GLP1R on …; experiment: cell-based or functional assay; remark: listed apart in the source
[18] = target: T5, full-length cynomolgus GLP1R on …; experiment: cell-based or functional assay; remark: listed apart in the source
[19] = target: T3, full-length human glucagon-like peptide …; experiment: cell-based or functional assay; remark: listed apart in the source

Row | Binder | EC50 [1] [nM] | EC50 [2] [nM] | EC50 [3] [nM] | Flow S/N [3] [fold] | EC50 [4] [nM] | EC50 [10] [nM] | Flow S/N [10] [fold] | CRE-luc EC50 [13] [nM] | CRE-luc Relative Potency (% M2361 EC50) [13] [%] | CRE-luc Relative Signal:Noise (% M2361) [13] [%] | CRE-luc S/N [13] [fold] | 90 nM hGLP1R.mmh Bound (RU) [14] [RU] | Kd [14] [nM] | koff [14] [s⁻¹] | kon [14] [M⁻¹ s⁻¹] | t1/2 [14] [h] | CRE-luc EC50 [15] [nM] | CRE-luc EC50 [16] [nM] | CRE-luc EC50 [17] [nM] | CRE-luc EC50 [18] [nM] | other results
1 | B1 | 8.48 | 7.47 | 0.988 | 205 | 61.4 | 1.89 | 256 |  |  |  |  |  |  |  |  |  |  |  |  |  | Flow S/N [1]: 260 fold; Flow S/N [2]: 528 fold; Flow S/N [4]: 154 fold; CRE-luc EC50 [5]: > 30 nM; CRE-luc EC50 [6]: > 30 nM; CRE-luc EC50 [7]: > 30 nM; CRE-luc EC50 [8]: > 30 nM; CRE-luc EC50 [9]: > 30 nM
2 | B2 | 9.56 | 8.96 |  |  | 43.1 |  |  |  |  |  |  |  |  |  |  |  |  |  |  |  | Flow S/N [1]: 106 fold; CRE-luc EC50 [11]: > 1000 nM; CRE-luc Emax (% GLP-1) [11]: 0.5%; b-arrestin 2 recruitment EC50 [12]: > 1000 nM; b-arrestin 2 recruitment Emax (% GLP-1) [12]: 4.3%; Flow S/N [2]: 132 fold; Flow S/N [4]: 53.3 fold; CRE-luc EC50 [5]: > 30 nM; CRE-luc EC50 [6]: > 30 nM; CRE-luc EC50 [7]: > 30 nM; CRE-luc EC50 [8]: > 30 nM; CRE-luc EC50 [9]: > 30 nM
3 | B3 |  |  | 3.71 | 155 |  | 4.39 | 166 | 0.0984 | 16.5 | 112 | 71.8 | 86.7 | 0.069 | 6.06e-05 | 878000 | 3.17 | > 200 | > 200 | 0.094 | 0.0973 | CRE-luc EC50 [19]: > 200 nM
4 | B4 |  |  | 4.44 | 212 |  | 5.08 | 269 | 0.0854 | 19 | 107 | 68.9 | 110 | 0.528 | 0.000186 | 353000 | 1.03 | > 200 | > 200 | 0.212 | 0.25 | CRE-luc EC50 [19]: > 200 nM
5 | B5 |  |  | 3.39 | 148 |  | 3.88 | 173 | 0.0874 | 18.6 | 125 | 80.7 | 77.3 | 0.17 | 0.000297 | 1.74e+06 | 0.65 | > 200 | > 200 | 0.114 | 0.137 | CRE-luc EC50 [19]: > 200 nM
6 | B6 | 3.33 | 4.13 | 0.81 |  | 45 |  |  |  |  |  |  |  |  |  |  |  |  |  |  |  | 
